In the supplement of paper PMC12764529:
± gives the half width of the 95% confidence interval.

Test: folding stability dG unfold (combined trypsin and chymotrypsin); higher = more stable
Procedure, shortened: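 Designed mini-proteins with no cysteine and under 80 residues were kept only if AlphaFold2 dimer inter-PAE was above 15. In a PA-tagged cDNA display construct, they were digested with trypsin and chymotrypsin and then sequenced. K50 was inferred by Bayesian fitting of counts, and unfolding free energy was derived per protease or combined against a sequence-predicted unfolded-state K50 and a shared folded-state K50.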

Sequence | folding stability dG unfold
SAGGSAIRIEPDEDGYIKIEKPSPPGEPASELIEELKDFFPNWEVETHPHPNGRAEIIFRIPPDQFSAGGSA [r15_1047_TrROS] | -0.132 ± 0.15 kcal/mol
SAGGSAGGSAGGMTTITVKDKTKEEIEKELAEKYNVKKVTVTPIEGNSVKVEVEIEPLGSAGGSAGGSAGGS [r10_1219_JUSTAS] | -0.948 ± 0.46 kcal/mol
SAGGSAGGSAGGMKVSVSLDILETEVSPDGTVTATYKDESGEIRTITKYVEVKLKPGLASAGGSAGGSAGGS [r10_281_JUSTAS] | -0.237 ± 0.19 kcal/mol
SAGGSAGGSANSSSLPPNYVTPLPITVTDSRPGSYMPLEEREARAQALAEANPGVTVTVVRESAGGSAGGSA [r18_499_JUSTAS] | < -1 kcal/mol
SAGGMVVTSESREPDGTWTVRTVYRDPAGNLTITSSSTSSATVTRKDSAGTPSTAASTTNTYTSAALSAGGS [r8_270_JUSTAS] | -0.281 ± 0.15 kcal/mol
SAGGMRIWRVPETGVRAEVGTGGPWLVTITSSTTPVPEVRPVPPEEVEAFLRARFPGPVEEVERRPVPESAG [r5_519_JUSTAS] | -0.783 ± 0.19 kcal/mol
SAGGAMPKTITVTDPTSSREEAEALLASPERLEAIAEEIKPEFPGVDLTVTVSSDPATGTLTITIVSSAGGS [r16_320_JUSTAS] | < -1 kcal/mol
SAGGSAGGSAGGVRIRPPNGEWIRIDNAPDDEDIKDKLKKHPNVKPEIDPDTNEAWIPVSAGGSAGGSAGGS [r10_792_TrROS] | < -1 kcal/mol
SAGGSAGGSAGGPIKVKADKVTVEKRRNPENGKEYVELTVPGPGGTRTGRFPAEDLDKISAGGSAGGSAGGS [r10_447_TrROS] | < -1 kcal/mol
SVVTLEQVAELVEKGVELVAVLPDNRLLFYDPEREEPIELEVEEVPPPKPIFIEGGVESLEEALKFLEAESA [r9_649_TrMRF] | -0.381 ± 0.37 kcal/mol
SAGGSAGGSAMPEPVTITVRVPYEPDEAEAAAERIREEEYPDAKSITVTRDPATGTATFTVNSAGGSAGGSA [r18_390_JUSTAS] | < -1 kcal/mol
SAGGSAGGSTTSTIKVTLENPSGSPLKLETATITTDPVAGTSTLTVTVPGTGETKFVGTNPNLSSAGGSAGG [r6_330_JUSTAS] | 0.107 ± 0.061 kcal/mol
SAGGFRINIPPNMPKEKLEEIQDEAEEESGMPVTINTNPDDGSLHIEFPGGPEWKQRRIQDEIRELLSAGGS [r16_227_TrROS] | < -1 kcal/mol
SAGGSAGGSAGGMKVEVVDITGPPDLSPDATTTTKHPNGVTSTTTMTDPATRTSTIYTPESAGGSAGGSAGG [r11_362_JUSTAS] | < -1 kcal/mol
SAGGSAGGSQKIEITKVEPERGPNGRPYHRVNIEIVIPDGKPRKFDFYFDDPEDLENMTIELPSAGGSAGGS [r20_130_TrROS] | -0.88 ± 0.19 kcal/mol
SAGGSAGGSAVEEEVERIEKAVGVPIDPGSSVTKVKEGVEPVLPYRMDIKPGVESPELLLLSAGGSAGGSAG [r3_427_JUSTAS] | < -1 kcal/mol
SAGMDPNEKREVVVELEFEVPDPSNPEGGSVPIRVTLKATGKGTEEEAEELKKKAEEEAREKVEKGELLSAG [r5_532_JUSTAS] | -0.287 ± 0.56 kcal/mol
SAGGSAGGSYSKNGQPPPTREIEIIILVEDPEEAENKADELSEMLGMPIKVEIIPEEDAKKMISAGGSAGGS [r12_766_TrROS] | 0.27 ± 0.86 kcal/mol

Sequence | folding stability dG unfold
SMTITHKIPPDDPEKAEEEIKEKIEKETGLKVEKVEVPEGDGATLVVTIDKEKPVVTAEVVPLLPDGTPVSA [r9_173_JUSTAS] | 0.191 ± 0.35 kcal/mol
SAGGSAGGSAGMEIEVEVDPSTNTVKLTKKIGGKWVEATVTRTPGTGTITLPDGSTLKLTSAGGSAGGSAGG [r11_395_JUSTAS] | < -1 kcal/mol
SAGGSAGGSAGTITTTTDPATGEYTVTIPIASGDGTPVGTIPVTVPKSDPSAAAAFIAATSAGGSAGGSAGG [r11_77_JUSTAS] | -0.438 ± 0.29 kcal/mol
SAGGSAGGSAGATVLQQGTATPPDGTTVTFNYNITLPSDVLISVDKNPPNPDLVTKIEAGSAGGSAGGSAGG [r11_781_JUSTAS] | -0.197 ± 0.4 kcal/mol
SAGGSAGGSMKPVLTIPASVTDPEVAIAILREAKAALPEGTQLEVVMPGGAEEELKKAGLILKSAGGSAGGS [r12_992_JUSTAS] | < -1 kcal/mol
SAGGSAGGSAGGMTEYVPGEGKVLVTYPDGTTKVVPVDPATPEEFRAELEAAGVPEIKPLSAGGSAGGSAGG [r7_139_JUSTAS] | 0.198 ± 0.085 kcal/mol
SAIRGLPPEEIEKAVKKLAKEGNVEIEIKPFTMRVYPPDGGQQPYQYYQIEIYNPDNGKPIEDKIKKLFSAG [r14_628_TrROS] | < -1 kcal/mol
SAGGSAGGSAGTVTVDPEKGVVYVPLPEPISPEEVIEKRKEPELDVKILSVGENVAVILVSAGGSAGGSAGG [r17_323_JUSTAS] | -0.218 ± 0.11 kcal/mol
SAGGSAGGSAGGGSMTLSLDTRPEDGTLVLVSTFVDPASGLVSVTTTYPDSTVTTTLPVGSAGGSAGGSAGG [r7_402_JUSTAS] | 0.528 ± 0.087 kcal/mol
SAGGSAGGSAGGRITINPENGMVQIKGPNGNQHTFPMDDASELQKEFGLPNIDIEVFPPNSAGGSAGGSAGG [r7_235_TrROS] | -0.145 ± 0.22 kcal/mol
SAGGSAGGSAGGSEPWYVRIQIPDGNQIMFPPGSEAKIEIPKEEKDIRITEVIPADDIKSAGGSAGGSAGGS [r4_122_TrROS] | < -1 kcal/mol
SAGGSAGGSAGMEIPEDWTVVEESEVPDERLVTVHNPKTGELYVVTQPPATGEETVERYLSAGGSAGGSAGG [r11_896_JUSTAS] | < -1 kcal/mol
SAGGSTLDELIDAIKKAAKKGKEPVEIEFPNPNGGMIKINPDGSIETFPPNGEPQRFKIPLDDLKISAGGSA [r2_97_TrROS] | -0.781 ± 0.25 kcal/mol
SAGGFRITPEFLEELLKNMPPGDPNKTITVKVEMPMRYEPRKGGNGQPQYRHEYPMTHEFPITIPPKSAGGS [r16_708_TrROS] | -0.349 ± 0.19 kcal/mol
SAGGSAGGSMIVVKTENGEEIEISKDALKPGMTAEELKAKLPPGVKKIEIVEVKEVEVEVEEESAGGSAGGS [r20_161_TrROS_Hall] | < -1 kcal/mol
SAGGSAGGSSMPPGWSVTSETVVESIIETPNGPIIKVTTSKTTVTPPNGPPSTYTTTSEDPLGSAGGSAGGS [r12_544_JUSTAS] | < -1 kcal/mol
SMSEELKKEIEAFLKEKGASIDFKTDPSTGKITITVTIPGKGTTTTITLTFPPDNPEEIKEKIKELIEKGSA [r9_42_JUSTAS] | > 6 kcal/mol
SAGGSAGGSMTVKKIEIKPPPGGTDLATITTEKVDPSTGKPSLSTSTVTVPKNNPEAIEKFLSSAGGSAGGS [r12_691_JUSTAS] | < -1 kcal/mol
